# Measurements published in patent US20220073621A1 (EUCURE BEIJING BIOPHARMA, published 2022).
# Target: T1, hPD-L1-His (human, UniProt Q9NZQ7 19-238)
# T1 construct: Bought protein; also called hPD-L1-His (manufactured by Edison); not shown: His tag
# Test: SPR (Biacore T200), antibody on Protein A chip, hPD-L1-His injected, 1:1 fit
# Protocol: Subsequently, the binding affinity of the anti-PD-L1 chimeric antibody, humanized antibody, and marketed control antibody to hPD-L1-His (manufactured by Edison) were determined by surface plasmon resonance (Biacore T200 biosensor, Biacore, INC, Piscataway N.J.) equipped with pre-immobilized Protein A sensor chips.
# The detection results were read after the chip was regenerated with pH 2.0 glycine (30 μl/min, 10-20 s). Kinetic association rates (kon) and dissociation rates (koff) were obtained simultaneously by fitting the data globally to a 1:1 Langmuir binding model (Karlsson, R. Roos, H. Fagerstam, L. Petersson, B., 1994. Methods Enzymology 6. 99-110) using Biacore T200 Evaluation Software 3.0. Affinities were deduced from the quotient of the kinetic rate constants (KD=koff/kon).
# T1 sequence (Q9NZQ7 19-238 limits assumed): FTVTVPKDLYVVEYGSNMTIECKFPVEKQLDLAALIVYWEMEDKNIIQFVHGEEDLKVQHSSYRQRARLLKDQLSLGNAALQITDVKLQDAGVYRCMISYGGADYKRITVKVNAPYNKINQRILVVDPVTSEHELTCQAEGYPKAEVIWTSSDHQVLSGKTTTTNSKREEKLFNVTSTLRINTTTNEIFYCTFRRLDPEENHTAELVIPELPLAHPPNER
Binder,Kd [nM],koff [s⁻¹],kon [M⁻¹ s⁻¹]
"07-6A11-mHvKv-IgG1 (antibody, V domains shown) VH: DVQLVESGGGLVQPGGSRKLSCAASGFTFSSFGMHWVRQAPEKGLEWVAYISSGSNTIYYADTVKGRFTISRDNPKNTLFLQMTSLRSEDTAIYYCTRNGYDGWYAMDYWGQGTSVTVSS VL: QIVLTQSPAIMSASPGEKVTMTCSASSSVSYIHWFQQKSGTSPKRWIYDTSKLASGVPARFSGRGSGTSYSLTISSMEAEDAATYYCQQWSTNPFTFGSGTKLEIK",3.57,0.0009,252000
"3F2-H2K2-IgG1 (antibody, V domains shown) VH: DVQLQESGPGLVKPSETLSLTCTVSGYSITSGYNWHWIRQFPGNGLEWMGYIHHSSITNYNPSLKSRITISRDTSKNQFSLKLSSVTAADTATFYCAREGYDYDWFAYWGQGTLVTVSS VL: DIVLTQSPDFQSVTPKEKVTLSCRASQSISNNLHWYQQKPDESPKLLIKYASQSISGIPSRFSGSGSGTDFTLTINSVEAEDFAMYFCQQSKSWPFTFGQGTRLEIK",0.81,0.000946,1.17e+06
"3F2-H3K3-IgG1 (antibody, V domains shown) VH: DVQLQESGPGLVKPSETLSLTCTVSGYSITSGYNWHWIRQFPGNGLEWMGYIHHSSITNYNPSLKSRITISRDTSKNQFSLKLSSVTAEDTATFYCAREGYDYDWFAYWGQGTLVTVSS VL: DIVLTQSPDTQSVTPKESVTLSCRASQSISNNLHWYQQKSHESPKLLIKYASQSISGIPSRFSGSGSGTDFTLTINSVEAEDFAMYFCQQSKSWPFTFGQGTRLEIK",0.625,0.000827,1.32e+06
"3F2-H4K2-IgG1 (antibody, V domains shown) VH: DVQLQESGPGLVKPSETLSLTCTVSGYSITSGYNWHWIRQFPGNKLEWMGYIHHSSITNYNPSLKSRITISRDTSKNQFFLQLSSVTAEDTATFYCAREGYDYDWFAYWGQGTLVTVSS VL: DIVLTQSPDFQSVTPKEKVTLSCRASQSISNNLHWYQQKPDESPKLLIKYASQSISGIPSRFSGSGSGTDFTLTINSVEAEDFAMYFCQQSKSWPFTFGQGTRLEIK",0.475,0.000617,1.3e+06
"3F2-H2K1-IgG1 (antibody, V domains shown) VH: DVQLQESGPGLVKPSETLSLTCTVSGYSITSGYNWHWIRQFPGNGLEWMGYIHHSSITNYNPSLKSRITISRDTSKNQFSLKLSSVTAADTATFYCAREGYDYDWFAYWGQGTLVTVSS VL: DIVLTQSPDFQSVTPKEKVTITCRASQSISNNLHWYQQKPDESPKLLIKYASQSISGIPSRFSGSGSGTDFTLTINSVEAEDFAMYFCQQSKSWPFTFGQGTRLEIK",0.7,0.000792,1.13e+06
"3F2-H1K2-IgG1 (antibody, V domains shown) VH: QVQLQESGPGLVKPSETLSLTCTVSGYSITSGYNWHWIRQFPGNGLEWMGYIHHSSITNYNPSLKSRITISRDTSKNQFSLKLSSVTAADTATYYCAREGYDYDWFAYWGQGTLVTVSS VL: DIVLTQSPDFQSVTPKEKVTLSCRASQSISNNLHWYQQKPDESPKLLIKYASQSISGIPSRFSGSGSGTDFTLTINSVEAEDFAMYFCQQSKSWPFTFGQGTRLEIK",0.69,0.000732,1.06e+06
"3F2-H3K2-IgG1 (antibody, V domains shown) VH: DVQLQESGPGLVKPSETLSLTCTVSGYSITSGYNWHWIRQFPGNGLEWMGYIHHSSITNYNPSLKSRITISRDTSKNQFSLKLSSVTAEDTATFYCAREGYDYDWFAYWGQGTLVTVSS VL: DIVLTQSPDFQSVTPKEKVTLSCRASQSISNNLHWYQQKPDESPKLLIKYASQSISGIPSRFSGSGSGTDFTLTINSVEAEDFAMYFCQQSKSWPFTFGQGTRLEIK",0.623,0.000753,1.21e+06
"3F2-H4K1-IgG1 (antibody, V domains shown) VH: DVQLQESGPGLVKPSETLSLTCTVSGYSITSGYNWHWIRQFPGNKLEWMGYIHHSSITNYNPSLKSRITISRDTSKNQFFLQLSSVTAEDTATFYCAREGYDYDWFAYWGQGTLVTVSS VL: DIVLTQSPDFQSVTPKEKVTITCRASQSISNNLHWYQQKPDESPKLLIKYASQSISGIPSRFSGSGSGTDFTLTINSVEAEDFAMYFCQQSKSWPFTFGQGTRLEIK",0.471,0.000626,1.33e+06
"3F2-H3K1-IgG1 (antibody, V domains shown) VH: DVQLQESGPGLVKPSETLSLTCTVSGYSITSGYNWHWIRQFPGNGLEWMGYIHHSSITNYNPSLKSRITISRDTSKNQFSLKLSSVTAEDTATFYCAREGYDYDWFAYWGQGTLVTVSS VL: DIVLTQSPDFQSVTPKEKVTITCRASQSISNNLHWYQQKPDESPKLLIKYASQSISGIPSRFSGSGSGTDFTLTINSVEAEDFAMYFCQQSKSWPFTFGQGTRLEIK",0.699,0.000793,1.13e+06
"3F2-H1K1-IgG1 (antibody, V domains shown) VH: QVQLQESGPGLVKPSETLSLTCTVSGYSITSGYNWHWIRQFPGNGLEWMGYIHHSSITNYNPSLKSRITISRDTSKNQFSLKLSSVTAADTATYYCAREGYDYDWFAYWGQGTLVTVSS VL: DIVLTQSPDFQSVTPKEKVTITCRASQSISNNLHWYQQKPDESPKLLIKYASQSISGIPSRFSGSGSGTDFTLTINSVEAEDFAMYFCQQSKSWPFTFGQGTRLEIK",0.787,0.000772,981000
"3F2-H2K3-IgG1 (antibody, V domains shown) VH: DVQLQESGPGLVKPSETLSLTCTVSGYSITSGYNWHWIRQFPGNGLEWMGYIHHSSITNYNPSLKSRITISRDTSKNQFSLKLSSVTAADTATFYCAREGYDYDWFAYWGQGTLVTVSS VL: DIVLTQSPDTQSVTPKESVTLSCRASQSISNNLHWYQQKSHESPKLLIKYASQSISGIPSRFSGSGSGTDFTLTINSVEAEDFAMYFCQQSKSWPFTFGQGTRLEIK",0.758,0.000881,1.16e+06
"3F2-H1K3-IgG1 (antibody, V domains shown) VH: QVQLQESGPGLVKPSETLSLTCTVSGYSITSGYNWHWIRQFPGNGLEWMGYIHHSSITNYNPSLKSRITISRDTSKNQFSLKLSSVTAADTATYYCAREGYDYDWFAYWGQGTLVTVSS VL: DIVLTQSPDTQSVTPKESVTLSCRASQSISNNLHWYQQKSHESPKLLIKYASQSISGIPSRFSGSGSGTDFTLTINSVEAEDFAMYFCQQSKSWPFTFGQGTRLEIK",0.805,0.000874,1.09e+06
"3F2-H4K3-IgG1 (antibody, V domains shown) VH: DVQLQESGPGLVKPSETLSLTCTVSGYSITSGYNWHWIRQFPGNKLEWMGYIHHSSITNYNPSLKSRITISRDTSKNQFFLQLSSVTAEDTATFYCAREGYDYDWFAYWGQGTLVTVSS VL: DIVLTQSPDTQSVTPKESVTLSCRASQSISNNLHWYQQKSHESPKLLIKYASQSISGIPSRFSGSGSGTDFTLTINSVEAEDFAMYFCQQSKSWPFTFGQGTRLEIK",0.502,0.000696,1.39e+06
"17-7E4-mHvKv-IgG1 (antibody, V domains shown) VH: QVQLQQSGAELVRPGVSVKISCKGSGFKFTDYAIHWVKQSHAKSLEWIGVISIYYGEASYNQKFKDKATLTVDTSSSTAYMELARLTSEDSAIYYCAREDYYGSSSYFDYWGQGTALTVSS VL: not shown",5.33,0.000805,151000
"08-3F2-mHvKv-IgG1 (antibody, V domains shown) VH: DVQLQESGPDLVKPSQTLSLTCTVTGYSITSGYNWHWIRQFPGNKLEWMGYIHHSSITNYNPSLKSRISITRDTSKNQFFLQLSSVTTEDTATFYCAREGYDYDWFAYWGQGTLVTVSA VL: DIVLAQSPATLSVTPGDSVSLSCRASQSISNNLHWYQQKSHESPRLLIKYASQSISGIPSRFSGSGSGTDFTLSINSVETEDFGMYFCQQSKSWPFTFGSGTRLEIK",0.266,0.00043,1.62e+06
